This is an account of results in patent publication US20110059077A1 (JURIDICAL FDN THE CHEMO SERO THERAPEUTIC RES INST, published 2011).

Common to all, as to test: cell-based or functional assay
Test [1] addresses T1, human α9 integrin molecule expressed on SW480 cells (human, UniProt Q13797 30-1035; P05556 21-798).
Test [2] addresses T1, human α9 integrin molecule expressed on …. This is another data set of the same source.
Test [3] has the same target. The source holds these as a separate data set.

Where two headings read alike, the source gives them in different places.

T1 sequence (Q13797 30-1035, form in doubt, chain 1 of 2): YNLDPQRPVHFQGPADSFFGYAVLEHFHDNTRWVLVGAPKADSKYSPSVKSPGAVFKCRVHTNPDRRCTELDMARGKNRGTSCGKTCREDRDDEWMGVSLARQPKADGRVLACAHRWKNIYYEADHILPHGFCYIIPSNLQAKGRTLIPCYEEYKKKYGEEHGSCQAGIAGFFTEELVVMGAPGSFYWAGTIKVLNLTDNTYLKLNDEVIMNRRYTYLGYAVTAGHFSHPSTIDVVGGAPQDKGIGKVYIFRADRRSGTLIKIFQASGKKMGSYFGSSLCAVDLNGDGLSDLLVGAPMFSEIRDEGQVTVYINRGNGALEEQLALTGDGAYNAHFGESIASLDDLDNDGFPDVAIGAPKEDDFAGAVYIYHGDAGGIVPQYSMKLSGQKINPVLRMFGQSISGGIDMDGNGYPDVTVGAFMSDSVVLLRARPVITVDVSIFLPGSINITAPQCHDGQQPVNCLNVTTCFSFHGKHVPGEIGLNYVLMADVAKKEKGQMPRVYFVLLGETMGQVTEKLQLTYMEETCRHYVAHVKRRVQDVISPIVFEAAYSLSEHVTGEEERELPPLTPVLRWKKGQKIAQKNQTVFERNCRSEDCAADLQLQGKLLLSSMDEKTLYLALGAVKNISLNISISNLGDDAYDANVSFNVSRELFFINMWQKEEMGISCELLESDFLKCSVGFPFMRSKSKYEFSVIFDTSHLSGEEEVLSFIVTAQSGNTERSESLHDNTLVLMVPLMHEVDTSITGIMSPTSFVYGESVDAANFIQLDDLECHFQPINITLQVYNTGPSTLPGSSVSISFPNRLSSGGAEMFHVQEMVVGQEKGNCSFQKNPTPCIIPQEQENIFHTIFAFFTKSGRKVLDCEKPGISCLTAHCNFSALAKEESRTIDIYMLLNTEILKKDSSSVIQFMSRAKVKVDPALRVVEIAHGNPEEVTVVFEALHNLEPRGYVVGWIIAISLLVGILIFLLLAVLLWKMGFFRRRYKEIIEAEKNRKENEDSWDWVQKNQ
T1 sequence (P05556 21-798, form in doubt, chain 2 of 2): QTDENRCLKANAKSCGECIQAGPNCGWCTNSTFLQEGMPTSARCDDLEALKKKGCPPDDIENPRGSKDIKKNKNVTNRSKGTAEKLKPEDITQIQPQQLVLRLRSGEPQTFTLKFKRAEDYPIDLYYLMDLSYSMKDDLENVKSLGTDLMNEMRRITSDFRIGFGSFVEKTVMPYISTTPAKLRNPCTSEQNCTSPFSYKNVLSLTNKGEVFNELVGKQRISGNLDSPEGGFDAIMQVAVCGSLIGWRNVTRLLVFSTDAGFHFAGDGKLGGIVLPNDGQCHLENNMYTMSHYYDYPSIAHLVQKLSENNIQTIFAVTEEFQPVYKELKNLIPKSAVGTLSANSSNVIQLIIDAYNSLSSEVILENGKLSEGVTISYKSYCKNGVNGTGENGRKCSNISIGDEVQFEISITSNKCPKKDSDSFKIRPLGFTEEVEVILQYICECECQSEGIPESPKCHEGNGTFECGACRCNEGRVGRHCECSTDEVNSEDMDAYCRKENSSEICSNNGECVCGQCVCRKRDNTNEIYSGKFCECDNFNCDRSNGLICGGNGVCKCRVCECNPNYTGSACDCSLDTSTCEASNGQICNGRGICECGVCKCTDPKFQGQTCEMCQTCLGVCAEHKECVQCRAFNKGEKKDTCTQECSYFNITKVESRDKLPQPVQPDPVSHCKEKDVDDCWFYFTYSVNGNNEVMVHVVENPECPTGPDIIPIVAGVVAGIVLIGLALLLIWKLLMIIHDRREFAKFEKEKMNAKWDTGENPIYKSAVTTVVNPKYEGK

B1: mouse anti-human α9 integrin antibody Y9A2 (antibody, V domains shown)
VH: QVQLQQSGAELANPGASVKMSCKASGYTLTTYWMHWVKQRPGQGLEWIGYINPSSGYTEYNQKFKDKATLTADKSSSTAYMQLTSLTSEDSAVYYCAIYGDYGDFYFDYWGQGTTLTVSS
VL: SIVMTQTPKFLLVSAGDRVTMTCKASQSVNTDVAWFQQKPGQSPKLLIYFASNHYTGVPDRFTGSGYGTDFTFTISTVQAEDLAIYFCRQDYSSPFTFGGGTKLEIKR
On to B1, for which the “specific activity (IC50 relative to mouse Y9A2 = 1), cell adhesion inhibition, SW480/hα9 cells to nOPN-RAA” value in test [1] was 1 ratio to IC50 of mouse Y9A2. For the same molecule, in test [2], the “specific activity (IC50 relative to mouse Y9A2 = 1), cell adhesion inhibition, SW480/hα9 cells to nOPN-RAA” value is 1 ratio to IC50 of mouse Y9A2. Further, in test [3], the “specific activity (IC50 relative to mouse Y9A2 = 1), cell adhesion inhibition to human Tenascin C-RAA” value is 1 ratio to IC50 of mouse Y9A2 and the “specific activity (IC50 relative to mouse Y9A2 = 1), cell adhesion inhibition to human VCAM-1” value is 1 ratio to IC50 of mouse Y9A2.

B2: RY9A2v11(M34L)012 antibody (antibody, human IgG1, kappa, V domains shown)
VH: QVQLVQSGAEVKKPGSSVKMSCKASGYTLTTYWLHWVKQRPGQGLEWIGYINPSSGYTEYNQKFQGRVTITADKSTSTAYMELSSLRSEDTAVYYCAIYGDYGDFYFDYWGQGTTVTVSS
VL: DIQMTQSPSSLSASVGDRVTITCRASQSVNTDVAWYQQKPGKAPKLLIYFASNHYTGVPSRFSGSGSGTDFTFTISSLQPEDIATYYCRQDYSSPFTFGGGTKVEIKR
For the molecule B2, in test [2], the “specific activity (IC50 relative to mouse Y9A2 = 1), cell adhesion inhibition, SW480/hα9 cells to nOPN-RAA” value is 0.23 ratio to IC50 of mouse Y9A2. In addition, in test [3], the “specific activity (IC50 relative to mouse Y9A2 = 1), cell adhesion inhibition to human Tenascin C-RAA” value is 0.35 ratio to IC50 of mouse Y9A2 and the “specific activity (IC50 relative to mouse Y9A2 = 1), cell adhesion inhibition to human VCAM-1” value was 0.44 ratio to IC50 of mouse Y9A2.

B3: RY9A2v501 antibody (antibody, V domains shown)
VH: QVQLVQSGAEVKKPGSSVKMSCKASGYTLTTYWMHWVKQRPGQGLEWIGYINPSSGYTEYNQKFKDRVTITADKSTSTAYMELSSLRSEDTAVYYCAIYGDYGDFYFDYWGQGTTVTVSS
VL: DIQMTQSPSSLSASVGDRVTITCKASQSVNTDVAWYQQKPGKAPKLLIYFASNHYTGVPSRFSGSGSGTDFTFTISSLQPEDIATYYCRQDYSSPFTFGGGTKVEIKR
Take B3: the “specific activity (IC50 relative to mouse Y9A2 = 1), cell adhesion inhibition, SW480/hα9 cells to nOPN-RAA” value in test [1] is 0.77 ratio to IC50 of mouse Y9A2.

B4: RY9A2v801 antibody (antibody, V domains shown)
VH: QVQLVQSGAEVKKPGSSVKVSCKASGYTLTTYWMHWVRQAPGQGLEWMGYINPSSGYTEYNQKFKDRVTITADKSTSTAYMELSSLRSEDTAVYYCAIYGDYGDFYFDYWGQGTTVTVSS
VL: DIQMTQSPSSLSASVGDRVTITCKASQSVNTDVAWYQQKPGKAPKLLIYFASNHYTGVPSRFSGSGSGTDFTFTISSLQPEDIATYYCRQDYSSPFTFGGGTKVEIKR
As to B4, the “specific activity (IC50 relative to mouse Y9A2 = 1), cell adhesion inhibition, SW480/hα9 cells to nOPN-RAA” value in test [1] is 0.82 ratio to IC50 of mouse Y9A2.

B5: RY9A2v12(M34L)012 antibody (antibody, human IgG1, kappa, V domains shown)
VH: QVQLVQSGAEVKKPGSSVKVSCKASGYTLTTYWLHWVRQAPGQGLEWMGYINPSSGYTEYNQKFQGRVTITADKSTSTAYMELSSLRSEDTAVYYCAIYGDYGDFYFDYWGQGTTVTVSS
VL: DIQMTQSPSSLSASVGDRVTITCRASQSVNTDVAWYQQKPGKAPKLLIYFASNHYTGVPSRFSGSGSGTDFTFTISSLQPEDIATYYCRQDYSSPFTFGGGTKVEIKR
Turning to B5, the “specific activity (IC50 relative to mouse Y9A2 = 1), cell adhesion inhibition, SW480/hα9 cells to nOPN-RAA” value in test [2] was 0.23 ratio to IC50 of mouse Y9A2. Also, in test [3], the “specific activity (IC50 relative to mouse Y9A2 = 1), cell adhesion inhibition to human Tenascin C-RAA” value is 0.26 ratio to IC50 of mouse Y9A2 and the “specific activity (IC50 relative to mouse Y9A2 = 1), cell adhesion inhibition to human VCAM-1” value was 0.95 ratio to IC50 of mouse Y9A2.

B6: RY9A2v5(IAW)01 antibody (antibody, human IgG1, kappa, V domains shown)
VH: QVQLVQSGAEVKKPGSSVKMSCKASGYTLTTYWIHWVKQRPGQGLEWIGYINPSSGYTEYNQKFKDRVTITADKSTSTAYMELSSLRSEDTAVYYCAIYGDYGAWYFDYWGQGTTVTVSS
VL: DIQMTQSPSSLSASVGDRVTITCKASQSVNTDVAWYQQKPGKAPKLLIYFASNHYTGVPSRFSGSGSGTDFTFTISSLQPEDIATYYCRQDYSSPFTFGGGTKVEIKR
For the molecule B6, the “specific activity (IC50 relative to mouse Y9A2 = 1), cell adhesion inhibition, SW480/hα9 cells to nOPN-RAA” value in test [2] was 0.29 ratio to IC50 of mouse Y9A2. Besides, in test [3], the “specific activity (IC50 relative to mouse Y9A2 = 1), cell adhesion inhibition to human Tenascin C-RAA” value is 0.44 ratio to IC50 of mouse Y9A2 and the “specific activity (IC50 relative to mouse Y9A2 = 1), cell adhesion inhibition to human VCAM-1” value was 1 ratio to IC50 of mouse Y9A2.
